Source: US20200308299A1, “ANTI-GPC-1 ANTIBODY” (National University Corporation Kochi University, priority 2017, published 2020)

What was measured:
DU145 cells = experiment: ADC assay combining anti-GPC-1 antibody and MMAF binding secondary antibody in DU145 cells; format: cell-based; conditions: primary antibody plus MMAF secondary antibody, 3 days
Procedure: 2000 DU145 cells were added to a 96-well plate at 80 μl. The cells were cultured overnight at 37° C. in a 5% CO2 incubator. The next day, 10 μl each of anticancer agent binding secondary antibody (2 μg/ml) and primary antibody concentrated 10-fold relative to the final concentration was added to each well, so that the total amount was 100 μl. The cells were cultured for 3 days at 37° C. in a 5% CO2 incubator. The cell viability was measured by using a CellTiter-Glo Luminescent Cell Viability Assay reagent to detect the amount of ATP. RPMI1640+10% FBS+1% PS was used as the medium. The final concentrations of the primary antibodies were […]. 2 μg/ml of Fab-aMFc-CL-MMAF (model number AM202AF-50, Moradec) was used as the secondary antibody. The EC50 value was analyzed with GraphPad Prism 6. The same experiment was conducted using 4000 MDA-MB231 cells as the control.

TE14 cells = experiment: ADC assay combining anti-GPC-1 antibody and MMAF binding secondary antibody, TE14 cells; format: cell-based; conditions: primary antibody plus MMAF secondary antibody
Procedure: FIG. 1 depicts a schematic diagram of an ADC used in an assay. This Example used a secondary antibody (MORADEC) to the anti-GPC1 antibody made in Example 1, to which an anticancer agent (MMAF) was bound via a linker.
2000 TE14 cells were added to a 96-well plate at 80 μl. The cells were cultured overnight at 37° C. in a 5% CO2 incubator. The next day, 10 μl of an anticancer agent bound secondary antibody and 10 μl of a primary antibody concentrated 10-fold relative to the final concentration was added to each well, so that the total amount was 100 μl. The cells were cultured for 6 days at 37° C. in a 5% CO2 incubator. The cell viability was measured by using a CellTiter-Glo Luminescent Cell Viability Assay reagent to detect the amount of ATP. RPMI1640+10% FBS+1% PS was used as the medium. The final concentrations of the primary antibody were 0, 0.004, 0.0156, 0.0625, 0.25, and 1.0 nM. 2 μg/ml of Fab-aMFc-CL-MMAF (model number: AM202AF-50, Moradec) was used as the secondary antibody.

Molecule | EC50 values against DU145 cells (DU145 cells) | EC50 values against TE14 cells (TE14 cells)
clone 02b006: anti-human Glypican-1 antibody, heavy chain SEQ ID NO: 194, light chain SEQ ID NO: 196 (antibody) heavy: MKHLWFFLLLVAAPRWVLSEVQLVESGGGLVKPGGSRKLSCAASGFTFSDYGMHWVRQAPEKGLEWVAYISSGSSTIYYADTVKGRFTISRDNAKNTLFLQMTSLRSEDTAIYYCVRHSYYNYDIGGYYAMDYWGQGTSVTVSSAKTTAPSVYPLAPVCGDTTGSSVTLGCLVKGYFPEPVTLTWNSGSLSSGVHTFPAVLQSDLYTLSSSVTVTSSTWPSQSITCNVAHPASSTKVDKKIEPRGPTIKPCPPCKCPAPNLLGGPSVFIFPPKIKDVLMISLSPIVTCVVVDVSEDDPDVQISWFVNNVEVHTAQTQTHREDYNSTLRVVSALPIQHQDWMSGKEFKCKVNNKDLPAPIERTISKPKGSVRAPQVYVLPPPEEEMTKKQVTLTCMVTDFMPEDIYVEWTNNGKTELNYKNTEPVLDSDGSYFMYSKLRVEKKNWVERNSYSCSVVHEGLHNHHTTKSFSRTPGK light: MRLLAQLLGLLMLWVPGSSGDIVLTQSPSSLSASLGERVSLTCRASQEISGYLSWLQQKPDGTIKRLIYAASTLDSGVPKRFSGSRSGSDYSLTISSLESEDFADYYCLQYASYPLTFGAGTKLEIKRADAAPTVSIFPPSSEQLTSGGASVVCFLNNFYPKDINVKWKIDGSERQNGVLNSWTDQDSKDSTYSMSSTLTLTKDEYERHNSYTCEATHKTSTSPIVKSFNRNEC | excellent EC50 values | excellent EC50 values
clone 01a017: anti-human Glypican-1 antibody, heavy chain SEQ ID NO: 138, light chain SEQ ID NO: 140 (antibody) heavy: MKHLWFFLLLVAAPRWVLSEVQLQQSGGELVRPGTSVKMSCKAAGYTFTNYWIGWVKQRPGHGLEWIGDLYPGGGYTHYNEKFKGKATLTADTSSSTAYMQLSSLTSEDSAIYYCARERVYFDGSRYFDVWGAGTTVTVSSAKTTAPSVYPLAPVCGDTTGSSVTLGCLVKGYFPEPVTLTWNSGSLSSGVHTFPAVLQSDLYTLSSSVTVTSSTWPSQSITCNVAHPASSTKVDKKIEPRGPTIKPCPPCKCPAPNLLGGPSVFIFPPKIKDVLMISLSPIVTCVVVDVSEDDPDVQISWFVNNVEVHTAQTQTHREDYNSTLRVVSALPIQHQDWMSGKEFKCKVNNKDLPAPIERTISKPKGSVRAPQVYVLPPPEEEMTKKQVTLTCMVTDFMPEDIYVEWTNNGKTELNYKNTEPVLDSDGSYFMYSKLRVEKKNWVERNSYSCSVVHEGLHNHHTTKSFSRTPGK light: MRLLAQLLGLLMLWVPGSSGSIVMTQTPKFLPVSAGDRVTMTCKASQSVGNNVAWYQQKPGQSPKLLIYYASNRYTGVPDRFTGSGSGTDFTFTISSVQVEDLAVYFCQQHYSSPWTFGGGTKLEIKRADAAPTVSIFPPSSEQLTSGGASVVCFLNNFYPKDINVKWKIDGSERQNGVLNSWTDQDSKDSTYSMSSTLTLTKDEYERHNSYTCEATHKTSTSPIVKSFNRNEC | excellent EC50 values | excellent EC50 values

Further lines, results first:

EC50 values against DU145 cells (DU145 cells) | EC50 values against TE14 cells (TE14 cells) | Molecule
excellent EC50 values | excellent EC50 values | clone 01a042: anti-human Glypican-1 antibody, heavy chain SEQ ID NO: 162, light chain SEQ ID NO: 164 (antibody) heavy: MKHLWFFLLLVAAPRWVLSQVQLQQPGAELAKPGASVKMSCKASGYTFTRYWMHWVKQRPGQGLEWIGYINPSSGYTEYNQKFKDKATLTADKSSSTAYMQLSSLTSEDSAVYYCVRLGDYSYYFDYWGQGTTLTVSSAKTTAPSVYPLAPVCGDTTGSSVTLGCLVKGYFPEPVTLTWNSGSLSSGVHTFPAVLQSDLYTLSSSVTVTSSTWPSQSITCNVAHPASSTKVDKKIEPRGPTIKPCPPCKCPAPNLLGGPSVFIFPPKIKDVLMISLSPIVTCVVVDVSEDDPDVQISWFVNNVEVHTAQTQTHREDYNSTLRVVSALPIQHQDWMSGKEFKCKVNNKDLPAPIERTISKPKGSVRAPQVYVLPPPEEEMTKKQVTLTCMVTDFMPEDIYVEWTNNGKTELNYKNTEPVLDSDGSYFMYSKLRVEKKNWVERNSYSCSVVHEGLHNHHTTKSFSRTPGK light: MRLLAQLLGLLMLWVPGSSGDVVMTQTPLSLPVSLGDQASISCRSSQSIVHSNGNTYLEWYLQKPGQSPKLLIYKVSNRFSGVPDRFSGSGSGTDFTLKISRVEAEDLGVYYCFQGSHVPWTFGGGTKLELKRADAAPTVSIFPPSSEQLTSGGASVVCFLNNFYPKDINVKWKIDGSERQNGVLNSWTDQDSKDSTYSMSSTLTLTKDEYERHNSYTCEATHKTSTSPIVKSFNRNEC
excellent EC50 values | excellent EC50 values | clone 02a014: anti-human Glypican-1 antibody, heavy chain SEQ ID NO: 178, light chain SEQ ID NO: 180 (antibody) heavy: MKHLWFFLLLVAAPRWVLSEVQLQQSGPELVKPGASVKISCKASGYSFTGYYIHWVKQSPEKSLEWIGEINPSTGDITYNQKFKAKATLTVDKSSSTAYMQLKSLTSDDSAVYYCARERNYDRFAYWGQGTLVTVSSAKTTAPSVYPLAPVCGDTTGSSVTLGCLVKGYFPEPVTLTWNSGSLSSGVHTFPAVLQSDLYTLSSSVTVTSSTWPSQSITCNVAHPASSTKVDKKIEPRGPTIKPCPPCKCPAPNLLGGPSVFIFPPKIKDVLMISLSPIVTCVVVDVSEDDPDVQISWFVNNVEVHTAQTQTHREDYNSTLRVVSALPIQHQDWMSGKEFKCKVNNKDLPAPIERTISKPKGSVRAPQVYVLPPPEEEMTKKQVTLTCMVTDFMPEDIYVEWTNNGKTELNYKNTEPVLDSDGSYFMYSKLRVEKKNWVERNSYSCSVVHEGLHNHHTTKSFSRTPGK light: MRLLAQLLGLLMLWVPGSSGSIVMTQTPALMAASPGEKVTITCSVSSSISSSNLHWYQQKSETSPKPWIYGTSNLASGVPVRFSGSGSGTSYSLTISSMEAEDAATYYCQQWSSYPLTFGAGTKLEIKRADAAPTVSIFPPSSEQLTSGGASVVCFLNNFYPKDINVKWKIDGSERQNGVLNSWTDQDSKDSTYSMSSTLTLTKDEYERHNSYTCEATHKTSTSPIVKSFNRNEC
